Measurements: patent US20190382482A1 (GlaxoSmithKline, published 2019)

T1: Recombinant human LAG-3 ECD-His6 (human, UniProt P18627 23-433)
T1 construct: Entry holds the ECD with the C-terminal His6; also called LAG-3-His; recombinant human LAG-3-His
T1 sequence: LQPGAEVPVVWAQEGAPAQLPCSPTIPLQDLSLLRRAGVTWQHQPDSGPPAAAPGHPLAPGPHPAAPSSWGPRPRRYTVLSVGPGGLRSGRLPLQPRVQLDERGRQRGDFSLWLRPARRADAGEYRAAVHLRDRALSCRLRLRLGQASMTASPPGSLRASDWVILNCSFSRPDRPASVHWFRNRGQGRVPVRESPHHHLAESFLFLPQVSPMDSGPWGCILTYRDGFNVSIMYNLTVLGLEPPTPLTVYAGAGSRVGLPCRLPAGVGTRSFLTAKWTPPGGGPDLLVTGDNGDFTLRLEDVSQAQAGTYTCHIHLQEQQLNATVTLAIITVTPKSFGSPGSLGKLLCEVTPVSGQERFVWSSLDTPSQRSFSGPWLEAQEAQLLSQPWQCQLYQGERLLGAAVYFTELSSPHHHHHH

T2: Human LAG-3 on cells (human, UniProt P18627 23-525)
T2 construct: whole, on cells; also called human LAG-3 expressing EL4 cells
T2 sequence (looked up): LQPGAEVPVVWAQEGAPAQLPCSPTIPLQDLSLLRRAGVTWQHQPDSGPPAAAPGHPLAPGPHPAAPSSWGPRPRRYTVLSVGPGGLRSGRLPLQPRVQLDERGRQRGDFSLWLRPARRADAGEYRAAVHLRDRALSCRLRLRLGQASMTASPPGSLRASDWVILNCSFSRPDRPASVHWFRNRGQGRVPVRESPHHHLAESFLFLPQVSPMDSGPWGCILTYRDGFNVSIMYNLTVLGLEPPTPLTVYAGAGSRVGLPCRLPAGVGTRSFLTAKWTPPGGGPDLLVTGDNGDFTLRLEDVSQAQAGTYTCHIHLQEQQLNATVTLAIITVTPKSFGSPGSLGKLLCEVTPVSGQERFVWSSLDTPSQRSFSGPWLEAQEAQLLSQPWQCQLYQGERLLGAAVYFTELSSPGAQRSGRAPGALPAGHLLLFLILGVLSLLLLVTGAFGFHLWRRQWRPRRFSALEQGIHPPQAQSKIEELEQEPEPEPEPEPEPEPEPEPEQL

B1: H5L7BW (antibody, human IgG1, kappa, V domains shown)
VH: QVQLQESGPGLVKPSETLSLTCTVSGFSLTAYGVNWIRQPPGKGLEWIGMIWDDGSTDYDSALKSRVTISVDTSKNQFSLKLSSVTAADTAVYYCAREGDVAFDYWGQGTLVTVSS
VL: DIQMTQSPSSLSASVGDRVTITCKSSQSLLNPSNQKNYLAWYQQKPGKAPKLLVYFASTRDSGVPSRFSGSGSGTDFTLTISSLQPEDFATYYCLQHFGTPPTFGQGTKLEIKR
modifications: afucosylated Fc glycan (expressed in BioWa Potelligent FUT8 knock-out CHO cell line)
notes: differs only by lack of fucose; also called afucosylated H5L7BW; afucosylated H5L7
B2: H5L7 (antibody, human IgG1, kappa, V domains shown)
VH: B1 VH
VL: B1 VL
notes: wild type fucosylated form; also called H5L7WT; fucosylated H5L7
B3: IMP731 (antibody, human IgG1, kappa, V domains shown)
VH: QVQLKESGPGLVAPSQSLSITCTVSGFSLTAYGVNWVRQPPGKGLEWLGMIWDDGSTDYNSALKSRLSISKDNSKSQVFLKMNSLQTDDTARYYCAREGDVAFDYWGQGTTLTVSS
VL: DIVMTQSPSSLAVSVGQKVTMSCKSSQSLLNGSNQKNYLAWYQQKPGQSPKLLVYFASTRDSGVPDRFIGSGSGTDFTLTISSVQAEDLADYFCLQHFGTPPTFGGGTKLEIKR
notes: Chimeric anti-LAG-3 antibody, parent of the humanised variants; also called chimeric IMP731; chimeric control

How the values were obtained:
[1] = biological target: T1, Recombinant human LAG-3 ECD-His6; assay: SPR Biacore T100, Anova comparison of kd, 3 runs
Procedure: (§1) Wild type fucosylated and afucosylated antibodies were compared for their ability to bind to recombinant human LAG-3 ECD with a C-terminal His6 (SEQ ID NO:51) using the Biacore™ T100 (GE Healthcare™). Protein A was immobilised on a CM5 chip by primary amine coupling. This surface was then used to capture the humanised antibodies. Recombinant human LAG-3 ECD-His6 was then passed over the captured antibodies at 32, 8, 2, 0.5 and 0.125 nM and regeneration was carried out using 50 mM NaOH. The binding curves were double referenced with buffer injection (i.e. 0 nM) and the data was fitted to the T100 analysis software using the 1:1 model. The run was carried out at 25° C., using HBS-EP as the running buffer.
(§2) In order to investigate the statistical significance of this kinetic data, this experiment was repeated 3 times with the same batch of the four antibodies and the chimeric control. KD, ka and kd parameters were each log (base 10) transformed prior to separate statistical analyses. For each parameter, a mixed model analysis of variance (‘Anova’) was performed on transformed data, including terms for Run (random block effect) and Antibody.

[2] = biological target: T1, Recombinant human LAG-3 ECD-His6; assay: SPR Biacore T100, Anova comparison of KD, 3 runs
Procedure: as §1, §2

Human LAG-3 on cells = biological target: T2, Human LAG-3 on cells; assay: Flow cytometry (MFI dose response) on human LAG-3 expressing EL4 cells
Procedure: Human LAG-3 expressing EL4 cells were incubated with either IMP731, H5L7WT or H5L7BW Alexa647-conjugated antibodies at varying concentrations of up to 50 μg/ml for 30 minutes at room temperature. Cells were washed with FACS buffer (PBS+0.5% BSA) to remove unbound antibody.
EL4 cells and CD3⁺ T cells were analysed by FACS using a Beckman Coulter FC 500 flow cytometer. FACS raw data were analysed using CXP Analysis software (Beckman Coulter). The data was initially plotted on a forward-scatter versus side-scatter plot and the population of cells of interest were gated. This gated population was then plotted as a histogram displaying fluorescence intensity and the mean fluorescence intensity (MFI) calculated. MFI values were then plotted in GraphPad Prism 5 software to generate dose response curves.

Row | Binder | kd ratio against H5L7 [1] | KD ratio against H5L7 [2] | EC50 (read off the curve) (Human LAG-3 on cells) [µg/mL] | fold decrease of kd against IMP731 [1] [fold] | kd ratio against IMP731 [1] | KD ratio against IMP731 [2] | fold decrease of KD against IMP731 [2] [fold]
1 | B1 | 1.12 | 1.05 | ~0.02 | – | – | – | –
2 | B2 | – | – | ~0.02 | ~10 | 0.155 | 0.0774 | 10
3 | B3 | – | – | ~0.01 | – | – | – | –
